Here are results for 1 sequence from PMC9230395.

The series concerns the target T1, ZBP1 (recombinant Z-DNA-binding protein) (UniProt Q9H171).
T1 sequence: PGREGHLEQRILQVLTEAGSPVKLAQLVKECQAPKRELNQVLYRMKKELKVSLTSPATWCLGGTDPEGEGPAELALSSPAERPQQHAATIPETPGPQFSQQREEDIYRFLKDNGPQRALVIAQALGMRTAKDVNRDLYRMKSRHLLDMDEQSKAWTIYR
The series can be described thus: BLI. The note with it: 10 mM MgCl2; kon 8.28e3 M-1 s-1, koff 4.68e-6 s-1; strands 1 and 2 circular; BLI: 1x PBS (10 mM phosphate) pH 7.2, 10 mM MgCl2, 0.1% BSA, 0.02% Tween-20, 25 C; EMSA: 10 mM phosphate pH 7.2, 10 mM MgCl2, 0.25 uM DNA, 6% PAGE (cc-91A) …. A general note: A gel shift assay detects complexes by their altered migration in electrophoresis.

pKd: −log10 of the molar value.

As for “CGTGTGATATAGGTGAACGCGCGTGTGTGTATATGTGTGCGATCGTAGAACTTGTGAACCCTTATACCATGCACGATCGCACATTTCGCACA / GCACACATATACACACACGCGCGTTCACCTATATCACACGTGACTTGTAATTAGTAACTACCAACGTGCGTGTGTGTCAGTCAGCGAAATGTGCGATCGTGCATGGTATAAGGGTTCACAAGTTCTACGATC / TTTTTACCTCACTATACTTACATGTTTTTTGGTAGTTACTAATTACAAGT [Bait-cc-91A (cc-91A + lB50)]”, the pKd was 9.25.

For orientation: pKd means the negative decadic logarithm of the Kd, by convention in mol/L.
